Experimental data published in PMC5100564 (Nucleic Acids Research, 2016).

Target: T1, recombinant GST-Scd6 (S. cerevisiae, UniProt P45978 1-349)
T1 sequence (looked up): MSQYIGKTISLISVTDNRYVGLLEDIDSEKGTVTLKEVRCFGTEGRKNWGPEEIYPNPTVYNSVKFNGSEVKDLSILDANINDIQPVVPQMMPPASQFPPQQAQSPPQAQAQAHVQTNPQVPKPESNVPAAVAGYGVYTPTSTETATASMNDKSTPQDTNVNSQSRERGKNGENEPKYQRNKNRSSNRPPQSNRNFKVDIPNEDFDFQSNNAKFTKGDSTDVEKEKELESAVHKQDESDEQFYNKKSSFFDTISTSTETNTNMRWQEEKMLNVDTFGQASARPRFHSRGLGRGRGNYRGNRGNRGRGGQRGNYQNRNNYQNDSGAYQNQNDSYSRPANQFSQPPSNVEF
Experiment: pull-down

binding result: binds
B1: recombinant purified His-Hmt1 (enzyme, S. cerevisiae, UniProt P38074 1-348, looked up)
chain: MSKTAVKDSATEKTKLSESEQHYFNSYDHYGIHEEMLQDTVRTLSYRNAIIQNKDLFKDKIVLDVGCGTGILSMFAAKHGAKHVIGVDMSSIIEMAKELVELNGFSDKITLLRGKLEDVHLPFPKVDIIISEWMGYFLLYESMMDTVLYARDHYLVEGGLIFPDKCSIHLAGLEDSQYKDEKLNYWQDVYGFDYSPFVPLVLHEPIVDTVERNNVNTTSDKLIEFDLNTVKISDLAFKSNFKLTAKRQDMINGIVTWFDIVFPAPKGKRPVEFSTGPHAPYTHWKQTIFYFPDDLDAETGDTIEGELVCSPNEKNNRDLNIKISYKFESNGIDGNSRSRKNEGSYLMH
